This note sets out measurements from patent US20190353661A1.

In assay [1] the target is Helminth lysate. The assay is described as follows: direct fluorescent ELISA on helminth lysate.
The target in assay [2] is Helminth lysate. Put plainly: ELISA on helminth lysate; (+++) >100 x background.
For assay [3], the target named is T1, Dust mite allergen Der p 2 (dust mite (Dermatophagoides pteronyssinus)) (UniProt P49278).
T1 sequence (looked up): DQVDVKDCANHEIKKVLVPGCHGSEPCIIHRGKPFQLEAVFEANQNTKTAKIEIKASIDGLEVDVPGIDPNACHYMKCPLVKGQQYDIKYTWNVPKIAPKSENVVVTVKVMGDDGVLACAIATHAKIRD
The assay is described as follows: direct ELISA, Der p2 coated at 5 µg/mL, two-fold dilutions of IgE, anti-human IgE secondary, OD 450 nm.

Assay [4] addresses Helminth lysate. The assay is described as follows: ELISA on helminth lysate; (++) 10-100 x background.

A value given as a limit tells only on which side of the number the result lay.

B1: Human IgE mAb 7G12 (antibody, V domains shown)
VH: QVHLVQSGVDVKKPGASVKLSCKTSGYTFTNYGITWVRQAPGQGLEWMGWISTYDGATNYSQNLQGRIIMTTDTSKRTAYLQMRSLRSDDTAVYYCARGRDSPDHWGQGTLVTVSS
VL: DIQMTQSPSTLSASVGDRVTITCRASQSINRWLAWYQQKPGTAPKLLIFKASTLDSGVPARFSGTGSETEFSLTINSLQPDDFATYYCQQYDHFPHTFGPGTKLDIK
As for B1, the RFU with Helminth lysate [1] was 40000 RFU. This molecule had a fold over background in the assay with Helminth lysate [2] greater than 100 fold.

B2: Human IgE mAb 2G1 (antibody)
VH: EFQLVESGGGLIQPGGSLRLSCAGSGFTVTTNYMAWVRQAPGKGLEWVSTIYSAGSTFYADSVKGRFTISGDNSKNTLYLQMGSLRAEDTAVYYCARENPAQDAFDIWAKDTMVTVSSASF
VL: EFSYELTQPLSVSVALGQTARITCGGNNIGSKNVHWYQQKPGLAPVLVIYRDSNRPSGIPARFSGSSSGNTATLTISSAQAGDEADYYCHVWDTSTVVFGGGTKLTVLSLPKAAPSVTLFPPSSEELQANKATLVCLISDFYPGAVTVAWKADSSPVKAGVETTTPSKQSNNKYAASSYLSLTPEQWKSHKSYSCQVTHEGSTVEKTVAPTECS
As to B2, in assay [3], the EC50 stood at 7.1 ng/mL.

B3: Human IgE mAb 11H12 (antibody, V domains shown)
VH: QVQLVESGGDLVTPGGSLRLSCAASGFAFSGYYMSWIRQAPGKGLEWISYINSNGLTISYADSVKGRFTVSRDNAKNSLFLQMSSLRAEDTAIYYCARDWGTTLVTFDLWGQGTLVTVSS
VL: QPVLTQSSSASASMGSSAKLTCTLSSGHRGYNIAWLQQHPGKAPLYLTNLEGSDSYKNDRLTVSSSGADRYLTISNLQPEDEATYYCFTWDSDSRVFGGGTHLTVL
As to B3, in the assay with Helminth lysate [1], the RFU was determined as 1000 RFU and the fold over background (times background) came out at 10. This molecule also returned a fold over background with Helminth lysate [4] of 10 to 100 fold.

B4: Human IgE mAb 1A5 (antibody, V domains shown)
VH: EVQLVESGGGVVQPGRSLRLSCAGSGFTFSTYVMHWVRQAPGKGLEWVAVISYDGTNKYYADSMKGRFTISRDNSKNTLYLQLNRLRAEDTAVYYCAKTMDDSSGYYCPDYW
VL: SSELTQDPAVSVALGQTVKITCQGDSLRNYFANWYQQKPGQAPVLVIYGQNNRPSGIPDRFSGSTSGNTGSLTITGAQAEDEADYYCNSRDSSGNHLYVFG
Take B4: the fold over background in the assay with Helminth lysate [4] fell in the range of 10 to 100 fold.
